Test results published in the DeepSol protein solubility set.

Assay: soluble on expression in E. coli; label from the status in PepcDB or PDB records

Sequence	soluble on expression in E. coli
MGSDKIHHHHHHMLIKTVLNKFERFKSFIYGDCRLAKVGGSEALVIDIKARRNSKPECPECGKRGKTYDTQPARLFEYVPIWAFKVFFRYAPRRVLCPIHGVKVESLPWGYGKEQMTISYQVYLARWARRLSWKEVAEIFKTSWDSIFRAVQYAVDYGLANRNLDGVTEIGVDEIAVFKGHQYLTMVYQLNAGVRRLLWCGPQRRIRTLLRFFREFGKERSAKLKYVCSDMWAPYLKVIAKRAPNAVNILDRFHIMRKFNEAIDEVRRTEAKEFKAAKQENVLEKGRWLLLKRPENLSEKQTSRLGDLLKLNLSSIKAYLLREDFQQFWDYQRSDFAGKFLDDWVIRTMQTDLEPMKKVARMLRNHKPMILNWFKAKGRLSSGAVEGLNLKAKLTIRKAYGFRTIKCLQVALYHTLGDLPEPLCHHRFC	not soluble
AIAQRFLDSISAATQAKSPAEHETLVAMADLYAIITCVEYLERAWRANAVSDEDYTRNCSRLIAQFRATRQLVMDDVPSVISFLEEYHLAARAAMNRLQVGVPATVEHANSSDETRRRNFTAAAIQATEAFLTFRDALELGERSVDRLLPYLREILLVLGRMGAVFGTADGDATVQRERIVQWVRRLDAMHAYEQITEEDKRQLAHDVDTLYDTFRRRVGELEM	soluble
MAHHHHHHMPFTEVYGVEQFRDIANDPTLTVVCFSAVWCGPCKTIEKDLDRLTYEFASVRFAKVDADNNTDIVSKCRVMQLPTFMLVRAGQMLGYVIGADLAQLKAKIREEANKS	soluble
MIGMMNSGAESSVEFYAAARQSSLYEPRKKSSQSRTYTPEGRVLVNGAPLSPTLDPQDLWKNMIIKTAAQKMIRENCEKKETGPMATIRRLSEKLKLKKSKSSAAMMNLDLDLDQKIPEVSEIESSSTTAVPQSPQQFVTNIRIEEANPVFFVQQSESLDRPHMLFEETSVLARLLEESSQIDKMEKDFAEKDSGKGSIDDDSVVVHKL	not soluble
MKRLQAFKFQLRPGGQQECEMRRFAGACRFVFNRALARQNENHEAGNKYIPYGKMASWLVEWKNATETQWLKDSPSQPLQQSLKDLERAYKNFFRKRAAFPRFKKRGQNDAFRYPQGVKLDQENSRIFLPKLGWMRYRNSRQVTGVVKNVTVSQSCGKWYISIQTESEVSTPVHPSASMVGLDAGVAKLATLSDGTVFEPVNSFQKNQKKLARLQRQLSRKVKFSNNWQKQKRKIQRLHSCIANIRRDYLHKVTTAVSKNHAMIVIEDLKVSNMSKSAAGTVSQPGRNVRAKSGLNRSILDQGWYEMRRQLAYKQLWRGGQVLAVPPAYTSQRCAYCGHTAKENRLSQSKFRCQVCGYTANADVNGARNILAAGHAVLACGEMVQSGRPLKQEPTEMIQATALEHHHHHH	not soluble
MSLGEIWYGGTIYTMREENEKVDAIYVENGMIVDVGSKKELENRYAAVTLYDLEDKTMIPGLVDSHMHLIGHGERLLRLDLSNCTSYSEVLTLVRKRVEEAPKGSWIIGEGWNENNFTDTKDVHARDLDEISKEHPILLKRVCRHVTWVNSYILQEANITEKAEDPKGGKIGRDSSNMLTGLLYEQGQELIKHVQPEIDEAYLQSALQTAIKDCWQYGLVGGHTEDLNYYGGFRKTHNAFSHVIKEMPFKAHLLVHHEVAQERKEYENEHYIEFGAMKIFSDGSFGGRTALLSEPYEDAKETNGVAIFSREELAELVKKARDLHMPVAIHTIGDLSLEYVIDALELYPPAEGLRDRIIHCQLAREELIERMKNLQAIIDIQPVFVSSDFPSVIEKLGEHRLRYAYAWKTLLEAGLHCNGGSDAPIEQVNPFLGIYSAVTRRSFIDGVCYMPEERLTAYEAVSLFTTGSAYAIGKEEKRGQITKGYEADFTILDRNIFEIEAEEIKEVQAEMTVIDGKVVYRKDAEGHHHHHH	soluble
MKSILEQLSSMTVVVADTGDLDSIKKFQPRDATTNPSLILAAAKNPDYVKLIDKAIESSENTLPNGFSEIELIKETVDQVSVFFGKEILKIISGRVSTEVDARLSFDTEATVKKARKLINLYKNFGIEKERILIKIAATWEGIKAAEILEKEGIKCNLTLLFNFCQAVTCANANITLISPFVGRILDWHKAKTGKTSFIGAEDPGVISVTQIYKYFKEKGFKTEVMGASFRNLDEIKELAGCDLLTIAPKFLEELKREKGVLIRKLDASTKINNSIDYKFEEKDFRLSMLEDQMASEKLSEGITGFSKAIEELEELLIERLSEMKNHKLISAN	soluble
MGSDKIHHHHHHMLRGGAPAVRMNAMKIISVNVGQPTALQVGQRTAVSGIRKHPVPGRVQVGEKGLEGDHVLNRRYHGGPDQAVYVYTREDYDHWTELLGRALEPGAFGENVLISGAESAEVRVGERFLLGAVEIEVTAPRLPCSTLGARMEDAGFVKRFKAARRPGFYARVLQSGDIGRGDPVTRTPAPDGAPTIGELFDADFAKSHDPAELRAWLTFPLGKRQRKEVEKWLAKAEG	not soluble
MSLKFMYSALLGNPVEHSISDELFEYLNHNIGVLDEYKHKKILVDSVCLEDKIKHLINDPKCIGLNITLPYKREVMRYIDNLDRVAEITGSVNNIYKSGNIITGTNTDWKGIYNTLVFFNISHITKCCVLGTGGTARAAIFALQKLQISPTVVYREPISENTRSLIKSFPDLKYITYKELADQQILNDMEIIINTTPVGMINYEESLPINFDHLDNVNYKDKYFMDVVFNPLHTKLHEYFGKKGAKIIDGLWVLIFQGIEAFSLWSDKINDGKYFFSKDDVVLIHTFLEGKIKGKEGHHHHHH	soluble
NVQHQLAQFQQLQQQAQAISVQKQTVEMQINETQKALEELSRAADDAEVYKSSGNILIRVAKDELTEELQEKLETLQLREKTIERQEERVMKKLQEMQVNIQEAMKGAG	soluble
LTPLAQMAEGMERQDVSIDKWTLHAKQNLSLTEKEFYQKVQRLKQEYRQYDWVIAREDKMIKAIGTYTDKKNRTSFRLQLVTTLKKHNPTSYLLYEQMSLETPDSWNDTYEQFERETLGIFQEKVVIFTCLNGHLDDNMNIVLQKKANQLLNEFQARSVEHVVEPNFVSISAFTDEWEEYIMTSKHKMNLQIALRSAGMGGKHTVTVGTPIVTTEY	soluble
MSNTIRLSGIAYESLVNGPGIRRVFFSQGCKHNCIGCFNPDTHDFNGGEERDIEELIKDLADNPFIDGVTFSGGDPLEQANKFIYIAKAARELGLNIWSYTGYKFEYLLEHANEFNKWKEYLENIDVLVDGKFDINKKEDGLKFRGSSNQRIINVKESLKEGKVIELEFLEHHHHHH	not soluble
GSSRGIPPKIEALPSDISIDEGKVLTVACAFTGEPTPEVTWSCGGRKIHSQEQGRFHIENTDDLTTLIIMDVQKQDGGLYTLSLGNEFGSDSATVNIHIRSI	soluble
VDAFVGTWKLVDSKNFDDYMKSLGVGFATRQVGNMTKPTTIIEVNGDTVIIKTQSTFKNTEISFKLGVEFDETTADDRKVKSIVTLDGGKLVHVQKWNGQETSLVREMVDGKLILTLTHGTAVCTRTYEKQA	soluble
MAHHHHHHMRDRVSPGMRPYRNMCASSPCGRLSHWVVALLPLPLSGTRHLLLRIPITRTHTHTHAAHATDKSEVLSSVVAPPPPPGHAALTTVYFVLVVDVGTHLSLSLSMNRDGVEDGIYVNFFGFDGKAAMLACDMYGILPENLLYLPKKMFLQTGDESEQVLLVRYTMCERSRQGTFRTLLGAKSKLIAEGKVEALWEERRRVCQGAAPCPRFTEKQLEEAAAALDTDSESDEERQVDERGMRKPPPPLPPAPPFAPDGPRGEAAAEAAATENDESPTPVTDTPFSRAPDSEPLPPPPTQASSDAGGETRRGSGTTATNDNAALAVDAKRTTQQLPNDWTQYDVVNSLELPRAHKLCSQPPSIPQAYFPRLLETLSMEEKELAAAQKELSRYSKKSARRLRARQQERSNEPSAPGRSTSLPPLSSSPAHKPATTHLHQSVELRNRRELAAVHRVAQAHLRFLSERYEQGRSIDEKMEGVATLGTLEHMLKYQKSIGVAPEFEDRLQSKMVREESRAALQQQLRESEWERAYAIEEKAQHAQEVLERERERTKGIVAEALRTQRLITDWKQVAAHRQQETHLNGVLHRSAVRHAKADAYIETKRAATGMSRYYHDQQEVHRRQLRDTIRDMMISKKFSADGVADEDNDVVA	not soluble
MKRSKRFAVLAQRPVNQDGLIGEWPEEGLIAMDSPFDPVSSVKVDNGLIVELDGKRRDQFDMIDRFIADYAINVERTEQAMRLEAVEIARMLVDIHVSREEIIAITTAITPAKAVEVMAQMNVVEMMMALQKMRARRTPSNQCHVTNLKDNPVQIAADAAEAGIRGFSEQETTVGIARYAPFNALALLVGSQCGRPGVLTQCSVEEATELELGMRGLTSYAETVSVYGTEAVFTDGDDTPWSKAFLASAYASRGLKMRYTSGTGSEALMGYSESKSMLYLESRCIFITKGAGVQGLQNGAVSCIGMTGAVPSGIRAVLAENLIASMLDLEVASANDQTFSHSDIRRTARTLMQMLPGTDFIFSGYSAVPNYDNMFAGSNFDAEDFDDYNILQRDLMVDGGLRPVTEAETIAIRQKAARAIQAVFRELGLPPIADEEVEAATYAHGSNEMPPRNVVEDLSAVEEMMKRNITGLDIVGALSRSGFEDIASNILNMLRQRVTGDYLQTSAILDRQFEVVSAVNDINDYQGPGTGYRISAERWAEIKNIPGVVQPDTIE	soluble
MAIIGIDLGTTNSLVATWSEDGATLIPNVLGEFLTPSVVSVDETGEILVGRIAKERLITHPQLTAATFKRFIGTEKKYELGTYTFSSEELSSFVIKSLKQDAEAYLNEEVTGAVISVPAYFNDTQRKSTKRAAEIAGLTVERLISEPTAAAIAYGLYQEESETKFLVFDLGGGTFDVSILELFEGIMDVKSIAGDNYLGGEDFTRSLMTFFLESHQLDPDSLDSKTLSLIYTQAERCKLTLCNESAATMNVVIQNQTYETSINRGEFEKIVTPLLLRLRYPIERALRDASLNPNDLDAVILIGGATRMPLVKSVISKMFGRMPYANINPDETVALGAAIQVALKERNKALEEVILTDVCPYSLGTSVVQEFGDGKSESGYFFPIIERNTPIPVSKVERLYTVKDKQQFITIDVYQGENRRVVNNLKLGELKIKIPPAPAGNESVDIRYTYDINGILEVEVISTSTGEKKRTIIQQNAGNLTDAEIEKRLLELRDIKIHPRDREENRLLLAKCERLYEELLGDERKKISILLQQFESVLTTQNDKKIKEASSILKEHIESMERWANR	not soluble
MKITFIGGGNMAGAMIGGLIHHGSTPSHICAVETDAMRRQQLAEACGVTVTASIPDGIHGSEIVILAVKPQQLRAVANQAAQFLQNKLVISIAAGVRASDLSQWLNRHEFVIRAMPNTPALIGEGITGLYALPLVDSRQKEQATTILEAIGTVIWVNEEAQLDAVTALSGSGPAYVFYFLEAMQEAGTQLGLTADTAKQLAMQTFLGATHLAAQSNDTLATLRMKVTSQGGTTEQALLSMEQADIRGAFIRAMHAACDRSRQMGEIFGRTLEHHHHHH	soluble
MSLYATMESVRLQSEAQQLAEMILQSETAENYRNCYKRLQEDEEAGRIIRSFIKIKEQYEDVQRFGKYHPDYREISRKMREIKRELDLNDKVADFKRAENELQSILDEVSVEIGTAVSEHVKVPTGNPYFDGLSSCGGGCGSGGSCGCKVSEGHHHHHH	soluble
MGSDKIHHHHHHMSKSITRKIQLTGGSTYIVSLPKEWIKALSLSAGDEVEIYQDTDMKLLIVPKSANTTDQKEIKKIIHCDNVTSEAIIREFIAYYIAGFSSVSITCPRMSSSTRAYIKDVVRRRLLGAEVIEEDVSTISIQFLVDEKELSIKKAISRAFTISYNMLRDSLEAISKADIELAKEISGRDDEVDRFFFYIARQLTISVKAINVLDSEGYNLTQMVDIYSVAKTIERVGDHANRIASLVEDVSKFSNKEDLVNLGLTILESYKSAMNAFLNEKKDIAHSLISNIEIFEKLRELQEIAIKSNDNPKIITSTSMTVESLRRVARYSADIAEATIDILAKSNK	not soluble
